What was measured:
[1] = biological target: WW12 (YAP2, both WW domains); assay: ITC, WW12 versus PY12; type: binding, human; conditions: 25°C, 2 mM DTT, 2 mM EDTA
Description: ITC experiments were performed using the MicroCal VP-ITC titration calorimeter (MicroCal-Malvern). […] The proteins and peptides used were prepared in the same buffer containing 20 mM Tris-HCl pH 7.0 and 100 mM NaCl. Protein concentrations varying from 20 to 70 μM were titrated against peptide concentrations ranging from 0.5 to 1.8 mM at 25°C. The peptide samples were also injected into buffer as a reference to estimate the heat of dilution. In the case of WW12 vs PY12, the buffer used was 20 mM Tris-HCl pH 7.0, 100 mM NaCl, 3% glycerol, 2 mM DTT and 2 mM EDTA. All samples were degassed and spun before the experiment. The binding isotherms were analyzed employing a model that considered a single ligand binding site implemented in Origin 7 (OriginLab).

[2] = system: WW12; assay: Co-expression, affinity and gel filtration chromatography of WW12-PY12; type: binding, human; conditions: WW12 and PY12 co-expressed in E. coli
Description: Cells were harvested by spinning at 4,000 g for 20 min and lysed by sonication in buffer containing 50 mM Tris-HCl pH 7.0, 200 mM NaCl, 5% glycerol, 2 mM DTT, 0.5% Triton X-100 and 1mM PMSF. […] The GST tag was cleaved overnight using PreScission Protease. In the case of WW12-PY12 complex, an additional Ni-NTA chromatography step was performed, as PY12 contained a His-tag. The eluted proteins were further purified using FPLC Superdex 75 gel filtration in buffer containing 20 mM Tris-HCl pH 7.0, 100 mM NaCl, 5% glycerol and 2 mM DTT. The purity and quality of the purified proteins were assessed using SDS polyacrylamide gel electrophoresis (SDS-PAGE) and dynamic light scattering (DLS).

Kd ([1]; ITC VP-ITC, 20 mM Tris-HCl pH 7.0, 100 mM NaCl, 3% glycerol, single ligand binding site model): 9.6 µM
B1: PY12: LATS1 region PY12 (containing both PPxY motifs; aa 361-567) (protein)
chain: NVVPAGTVNRQPPPPYPLTAANGQSPSALQTGGSAAPSSYTNGSIPQSMMVPNRNSHNMELYNISVPGLQTNWPQSSSAPAQSSPSSGHEIPTWQPNIPVRSNSFNNPLGNRASHSANSQPSATTVTAITPAPIQQPVKSMRVLKPELQTALAPTHPSWIPQPIQTVQPSPFPEGTASNVTVMPPVAEAPNYQGPPPPYPKHLLHQN
modifications: left off: His-tag, end not stated, kept
-TΔS ([1]; ITC, pH 7.0, 3% glycerol): 33.4 kcal/mol | ΔG ([1]; ITC, pH 7.0, 3% glycerol): -6.8 kcal/mol | ΔH ([1]; ITC, pH 7.0, 3% glycerol): -40.2 kcal/mol | complex formation [2]: formed a tight complex

Reference: publication PMC5814282, “Biophysical studies and NMR structure of YAP2 WW domain - LATS1 PPxY motif complexes reveal the basis of their interaction” (Oncotarget, 2018)
